How the values were obtained:
Test in all cases: IP/MS, LZTR1 wild type-FLAG, U87
KIAA1468 = target: T1, KIAA1468 (human, UniProt Q9P260 2-1216, limits assumed)
T1 sequence (looked up): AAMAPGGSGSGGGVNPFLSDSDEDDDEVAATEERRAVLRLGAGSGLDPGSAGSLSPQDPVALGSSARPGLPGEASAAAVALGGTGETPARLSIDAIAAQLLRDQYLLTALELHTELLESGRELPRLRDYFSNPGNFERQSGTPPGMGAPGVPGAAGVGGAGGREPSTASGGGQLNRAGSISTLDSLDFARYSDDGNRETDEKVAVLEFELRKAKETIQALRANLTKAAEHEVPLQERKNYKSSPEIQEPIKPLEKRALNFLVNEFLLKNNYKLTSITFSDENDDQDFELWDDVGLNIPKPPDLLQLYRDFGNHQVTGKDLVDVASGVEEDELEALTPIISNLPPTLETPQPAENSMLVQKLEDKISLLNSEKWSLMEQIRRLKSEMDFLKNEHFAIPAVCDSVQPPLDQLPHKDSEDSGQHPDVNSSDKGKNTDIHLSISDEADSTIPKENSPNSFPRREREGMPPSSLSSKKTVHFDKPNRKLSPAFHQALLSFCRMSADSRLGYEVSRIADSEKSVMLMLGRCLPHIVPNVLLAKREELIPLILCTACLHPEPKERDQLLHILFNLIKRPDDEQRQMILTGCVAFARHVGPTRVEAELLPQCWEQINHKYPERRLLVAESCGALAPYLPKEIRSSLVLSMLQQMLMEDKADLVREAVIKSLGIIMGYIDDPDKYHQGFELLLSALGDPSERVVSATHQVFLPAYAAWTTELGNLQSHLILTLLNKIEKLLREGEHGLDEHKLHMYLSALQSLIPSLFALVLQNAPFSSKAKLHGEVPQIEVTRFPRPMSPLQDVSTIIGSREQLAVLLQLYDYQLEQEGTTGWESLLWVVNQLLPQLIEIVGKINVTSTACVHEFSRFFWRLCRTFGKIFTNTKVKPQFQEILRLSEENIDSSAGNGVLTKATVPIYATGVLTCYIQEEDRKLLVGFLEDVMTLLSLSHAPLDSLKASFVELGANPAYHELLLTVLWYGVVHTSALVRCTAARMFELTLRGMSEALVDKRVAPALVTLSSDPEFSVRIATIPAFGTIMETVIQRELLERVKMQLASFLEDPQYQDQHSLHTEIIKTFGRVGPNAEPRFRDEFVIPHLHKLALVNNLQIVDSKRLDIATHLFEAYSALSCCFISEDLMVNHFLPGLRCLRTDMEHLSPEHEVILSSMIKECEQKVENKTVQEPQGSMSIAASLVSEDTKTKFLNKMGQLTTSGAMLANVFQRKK
Procedure, shortened: (§1)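 Gel slices were reduced with 5 mM DTT, alkylated with 11 mM IAA and digested overnight at 37° C. with trypsin. Peptides were analysed on an Orbitrap Fusion Tribrid by LC-MS/MS.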

RTTN = RTTN (human, UniProt Q86VV8 1-2226, limits assumed)
Procedure, shortened: as §1

ARFGEF1 = ARFGEF1 (human, UniProt Q9Y6D6 1-1849)
Procedure, shortened: as §1

CTDP1 = target: T2, CTDP1 (human, UniProt Q9Y5B0 1-961, limits assumed)
T2 sequence (looked up): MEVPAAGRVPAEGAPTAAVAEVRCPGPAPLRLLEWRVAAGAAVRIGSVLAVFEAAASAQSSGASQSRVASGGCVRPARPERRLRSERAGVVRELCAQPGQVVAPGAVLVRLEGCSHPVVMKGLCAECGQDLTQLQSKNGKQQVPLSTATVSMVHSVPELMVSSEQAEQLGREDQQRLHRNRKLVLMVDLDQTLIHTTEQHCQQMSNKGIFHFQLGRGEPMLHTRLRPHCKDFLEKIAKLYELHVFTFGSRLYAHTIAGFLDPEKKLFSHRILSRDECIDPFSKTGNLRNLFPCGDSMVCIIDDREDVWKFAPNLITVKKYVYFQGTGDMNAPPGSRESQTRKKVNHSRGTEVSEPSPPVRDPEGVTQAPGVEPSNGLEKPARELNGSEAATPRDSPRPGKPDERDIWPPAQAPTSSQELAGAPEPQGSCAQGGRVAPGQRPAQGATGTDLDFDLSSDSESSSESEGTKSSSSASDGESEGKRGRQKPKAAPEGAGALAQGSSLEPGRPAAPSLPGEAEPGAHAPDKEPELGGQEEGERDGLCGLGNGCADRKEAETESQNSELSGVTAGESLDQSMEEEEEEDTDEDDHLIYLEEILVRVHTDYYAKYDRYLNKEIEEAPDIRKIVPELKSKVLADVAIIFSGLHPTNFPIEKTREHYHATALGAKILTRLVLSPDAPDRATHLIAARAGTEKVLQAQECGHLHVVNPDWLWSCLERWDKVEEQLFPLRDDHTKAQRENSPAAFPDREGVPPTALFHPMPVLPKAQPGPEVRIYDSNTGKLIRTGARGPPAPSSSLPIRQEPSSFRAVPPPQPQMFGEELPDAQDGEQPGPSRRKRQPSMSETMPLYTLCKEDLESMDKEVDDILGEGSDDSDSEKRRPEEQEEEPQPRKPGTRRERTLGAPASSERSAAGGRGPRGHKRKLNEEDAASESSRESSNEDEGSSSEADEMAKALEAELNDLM
Procedure, shortened: as §1

Measured: binding result

Sequence of ARFGEF1 (Q9Y6D6 whole entry): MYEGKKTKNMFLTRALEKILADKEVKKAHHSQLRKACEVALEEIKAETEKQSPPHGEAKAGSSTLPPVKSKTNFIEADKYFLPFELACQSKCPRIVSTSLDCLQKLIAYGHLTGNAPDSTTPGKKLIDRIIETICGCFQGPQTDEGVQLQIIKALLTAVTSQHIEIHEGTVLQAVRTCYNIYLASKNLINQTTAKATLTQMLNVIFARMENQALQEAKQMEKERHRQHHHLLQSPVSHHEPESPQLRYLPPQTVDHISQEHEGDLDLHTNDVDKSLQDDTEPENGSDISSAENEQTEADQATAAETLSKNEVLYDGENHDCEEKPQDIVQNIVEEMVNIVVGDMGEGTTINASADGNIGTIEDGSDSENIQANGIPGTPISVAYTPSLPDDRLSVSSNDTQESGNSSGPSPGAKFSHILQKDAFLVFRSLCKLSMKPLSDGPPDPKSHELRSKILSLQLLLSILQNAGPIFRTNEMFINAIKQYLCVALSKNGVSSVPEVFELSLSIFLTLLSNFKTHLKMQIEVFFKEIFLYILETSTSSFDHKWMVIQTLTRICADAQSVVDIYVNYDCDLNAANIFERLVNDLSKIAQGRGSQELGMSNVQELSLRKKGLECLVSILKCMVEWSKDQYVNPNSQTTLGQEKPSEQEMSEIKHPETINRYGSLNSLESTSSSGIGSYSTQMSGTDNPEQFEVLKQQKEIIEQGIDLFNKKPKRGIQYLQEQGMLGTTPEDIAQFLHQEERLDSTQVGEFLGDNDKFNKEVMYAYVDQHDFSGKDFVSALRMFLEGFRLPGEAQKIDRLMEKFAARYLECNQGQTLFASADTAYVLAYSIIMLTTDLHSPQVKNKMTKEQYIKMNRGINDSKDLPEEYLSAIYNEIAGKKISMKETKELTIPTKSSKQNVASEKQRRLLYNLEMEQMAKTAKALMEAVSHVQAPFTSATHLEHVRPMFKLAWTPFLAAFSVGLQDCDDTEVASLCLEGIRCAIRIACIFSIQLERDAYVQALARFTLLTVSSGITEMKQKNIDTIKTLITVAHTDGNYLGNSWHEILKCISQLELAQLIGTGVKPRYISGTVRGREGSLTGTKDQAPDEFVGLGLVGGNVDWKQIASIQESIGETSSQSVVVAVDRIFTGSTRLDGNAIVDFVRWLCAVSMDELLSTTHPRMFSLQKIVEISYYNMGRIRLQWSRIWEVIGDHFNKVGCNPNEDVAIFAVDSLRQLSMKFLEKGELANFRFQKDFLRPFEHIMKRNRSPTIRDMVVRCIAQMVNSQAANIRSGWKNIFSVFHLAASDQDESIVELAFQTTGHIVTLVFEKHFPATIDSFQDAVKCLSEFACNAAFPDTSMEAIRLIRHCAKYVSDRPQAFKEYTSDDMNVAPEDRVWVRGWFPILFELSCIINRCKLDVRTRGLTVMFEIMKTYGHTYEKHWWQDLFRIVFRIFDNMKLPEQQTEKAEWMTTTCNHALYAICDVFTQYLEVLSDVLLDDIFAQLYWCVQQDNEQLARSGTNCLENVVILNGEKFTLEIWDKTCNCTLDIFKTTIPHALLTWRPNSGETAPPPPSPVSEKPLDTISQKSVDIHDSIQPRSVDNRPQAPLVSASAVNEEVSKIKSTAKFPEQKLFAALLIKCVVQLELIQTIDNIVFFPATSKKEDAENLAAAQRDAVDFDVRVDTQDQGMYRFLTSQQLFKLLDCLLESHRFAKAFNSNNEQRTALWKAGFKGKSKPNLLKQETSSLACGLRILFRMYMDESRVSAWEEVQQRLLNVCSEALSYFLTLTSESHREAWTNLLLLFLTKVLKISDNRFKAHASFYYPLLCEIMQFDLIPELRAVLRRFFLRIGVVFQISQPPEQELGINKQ
Sequence of RTTN (Q86VV8 whole entry): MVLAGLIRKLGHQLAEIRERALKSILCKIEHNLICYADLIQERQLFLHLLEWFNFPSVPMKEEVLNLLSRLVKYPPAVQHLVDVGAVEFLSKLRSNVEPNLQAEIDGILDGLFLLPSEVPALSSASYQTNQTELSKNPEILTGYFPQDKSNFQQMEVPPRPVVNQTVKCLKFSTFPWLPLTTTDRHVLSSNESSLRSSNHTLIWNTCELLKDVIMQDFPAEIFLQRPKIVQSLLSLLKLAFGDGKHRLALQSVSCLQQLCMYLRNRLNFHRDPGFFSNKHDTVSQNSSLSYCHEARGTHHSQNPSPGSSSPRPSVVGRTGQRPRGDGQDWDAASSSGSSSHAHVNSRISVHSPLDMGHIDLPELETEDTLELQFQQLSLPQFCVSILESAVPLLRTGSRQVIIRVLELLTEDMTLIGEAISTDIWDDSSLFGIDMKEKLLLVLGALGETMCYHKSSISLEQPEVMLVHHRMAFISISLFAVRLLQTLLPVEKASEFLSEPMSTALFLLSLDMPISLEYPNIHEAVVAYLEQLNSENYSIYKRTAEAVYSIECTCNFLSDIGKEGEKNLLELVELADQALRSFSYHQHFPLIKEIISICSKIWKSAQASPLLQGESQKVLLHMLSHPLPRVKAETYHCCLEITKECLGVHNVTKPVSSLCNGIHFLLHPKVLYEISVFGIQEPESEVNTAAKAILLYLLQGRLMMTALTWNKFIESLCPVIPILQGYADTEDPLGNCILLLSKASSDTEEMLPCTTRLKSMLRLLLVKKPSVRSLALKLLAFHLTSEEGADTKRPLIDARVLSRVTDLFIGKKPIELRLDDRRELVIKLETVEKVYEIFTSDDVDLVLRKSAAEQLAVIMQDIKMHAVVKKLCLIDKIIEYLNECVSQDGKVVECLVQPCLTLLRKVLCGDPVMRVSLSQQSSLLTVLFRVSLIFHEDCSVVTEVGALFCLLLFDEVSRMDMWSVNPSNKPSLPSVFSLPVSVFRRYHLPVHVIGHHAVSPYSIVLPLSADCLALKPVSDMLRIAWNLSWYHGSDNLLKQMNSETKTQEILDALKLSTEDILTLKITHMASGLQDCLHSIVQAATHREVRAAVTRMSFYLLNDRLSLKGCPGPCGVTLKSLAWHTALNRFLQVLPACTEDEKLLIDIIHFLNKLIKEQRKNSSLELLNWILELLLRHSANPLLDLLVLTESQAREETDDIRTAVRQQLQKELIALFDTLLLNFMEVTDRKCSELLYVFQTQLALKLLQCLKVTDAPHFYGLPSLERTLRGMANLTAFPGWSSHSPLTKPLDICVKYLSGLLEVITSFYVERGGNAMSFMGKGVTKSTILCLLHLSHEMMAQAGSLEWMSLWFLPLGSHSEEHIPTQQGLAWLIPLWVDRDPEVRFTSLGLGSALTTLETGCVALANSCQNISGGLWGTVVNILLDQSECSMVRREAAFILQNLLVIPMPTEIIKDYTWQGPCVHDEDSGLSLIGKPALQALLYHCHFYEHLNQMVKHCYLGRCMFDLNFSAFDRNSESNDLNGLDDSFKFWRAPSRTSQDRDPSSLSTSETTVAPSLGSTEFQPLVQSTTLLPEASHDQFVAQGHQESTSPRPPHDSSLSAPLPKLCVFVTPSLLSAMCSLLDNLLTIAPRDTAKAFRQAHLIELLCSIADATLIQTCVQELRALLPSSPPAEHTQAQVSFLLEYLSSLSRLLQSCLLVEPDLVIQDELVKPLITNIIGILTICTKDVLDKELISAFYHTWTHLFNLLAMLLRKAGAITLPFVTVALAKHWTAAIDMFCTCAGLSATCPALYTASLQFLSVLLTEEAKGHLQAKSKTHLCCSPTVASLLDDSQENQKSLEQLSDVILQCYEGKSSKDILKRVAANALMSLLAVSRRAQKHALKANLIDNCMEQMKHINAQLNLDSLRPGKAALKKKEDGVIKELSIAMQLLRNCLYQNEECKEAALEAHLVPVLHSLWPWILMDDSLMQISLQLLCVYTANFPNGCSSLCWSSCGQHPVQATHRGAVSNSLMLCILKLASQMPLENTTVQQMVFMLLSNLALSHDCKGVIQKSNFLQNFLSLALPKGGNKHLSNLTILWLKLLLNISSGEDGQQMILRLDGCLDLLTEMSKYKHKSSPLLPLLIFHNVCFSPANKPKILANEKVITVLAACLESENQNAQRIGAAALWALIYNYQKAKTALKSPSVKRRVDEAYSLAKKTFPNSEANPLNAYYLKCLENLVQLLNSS

B1: LZTR1-FLAG (other, human, UniProt Q8N653 1-840, looked up)
chain: MAGPGSTGGQIGAAALAGGARSKVAPSVDFDHSCSDSVEYLTLNFGPFETVHRWRRLPPCDEFVGARRSKHTVVAYKDAIYVFGGDNGKTMLNDLLRFDVKDCSWCRAFTTGTPPAPRYHHSAVVYGSSMFVFGGYTGDIYSNSNLKNKNDLFEYKFATGQWTEWKIEGRLPVARSAHGATVYSDKLWIFAGYDGNARLNDMWTIGLQDRELTCWEEVAQSGEIPPSCCNFPVAVCRDKMFVFSGQSGAKITNNLFQFEFKDKTWTRIPTEHLLRGSPPPPQRRYGHTMVAFDRHLYVFGGAADNTLPNELHCYDVDFQTWEVVQPSSDSEVGGAEVPERACASEEVPTLTYEERVGFKKSRDVFGLDFGTTSAKQPTQPASELPSGRLFHAAAVISDAMYIFGGTVDNNIRSGEMYRFQFSCYPKCTLHEDYGRLWESRQFCDVEFVLGEKEECVQGHVAIVTARSRWLRRKITQARERLAQKLEQEAAPVPREAPGVAAGGARPPLLHVAIREAEARPFEVLMQFLYTDKIKYPRKGHVEDVLLIMDVYKLALSFQLCRLEQLCRQYIEASVDLQNVLVVCESAARLQLSQLKEHCLNFVVKESHFNQVIMMKEFERLSSPLIVEIVRRKQQPPPRTPLDQPVDIGTSLIQDMKAYLEGAGAEFCDITLLLDGHPRPAHKAILAARSSYFEAMFRSFMPEDGQVNISIGEMVPSRQAFESMLRYIYYGEVNMPPEDSLYLFAAPYYYGFYNNRLQAYCKQNLEMNVTVQNVLQILEAADKTQALDMKRHCLHIIVHQFTKVSKLPTLRSLSQQLLLDIIDSLASHISDKQCAELGADI
notes: Expressed in HEK 293T, HeLa or U87 cells; used as cell lysate; also called LZTR1 wild type-FLAG; LZTR1 WT; not shown: FLAG tag at the C-terminus
binds: all assays above

Source: patent publication US20250262210A1 (TRUSTEES OF COLUMBIA UNIVERSITY IN THE CITY OF NEW YORK, published 2025)
